Results published in PMC5938751.

Legend:
[1] = tested on: N[C@@H](CCC(=O)NP(=O)(O)O)C(=O)O; experiment: purified protein; settings: fixed 5.0 mM MgCTP, pH 8.0, 25 °C
[2] = tested on: Nc1ccn([C@@H]2O[C@H](COP(=O)(O)OP(=O)(O)NC(=O)CC[C@H](N)C(=O)O)[C@@H](O)[C@H]2O)c(=O)n1; experiment: purified protein; settings: pH 8.0, 25 °C

Work on “Cj1416 (Campylobacter jejuni subsp. jejuni NCTC 11168 = ATCC 700819)” yielded a Km [1] of 120 ± 30 µM and a kcat [1] of 0.95 ± 0.1 s⁻¹.
In the case of “Cj1417 (Campylobacter jejuni subsp. jejuni NCTC 11168 = ATCC 700819)”, the Km [2] is reported as 28 ± 3 µM and the kcat [2] is reported as 0.567 ± 0.02 s⁻¹.
